According to article PMC11075285 (2024):

Kd (NEF172): 10.9 nM
Kd (NEF163): 3.5 nM
Kd (NEF108): 5.3 nM
B1: hIL-6Rα on hIL-6Rα-transfected HEK293T cells (receptor)
chain: LAPRRCPAQEVARGVLTSLPGDSVTLTCPGVEPEDNATVHWVLRKPAAGSHPSRWAGMGRRLLLRSVQLHDSGNYSCYRAGRPAGTVHLLVDVPPEEPQLSCFRKSPLSNVVCEWGPRSTPSLTTKAVLLVRKFQNSPAEDFQEPCQYSQESQKFSCQLAVPEGDSSFYIVSMCVASSVGSKFSKTQTFQGCGILQPDPPANITVTAVARNPRWLSVTWQDPHSWNSSFYRLRFELRYRAERSKTFTTWMVKDLQHHCVIHDAWSGLRHVVQLRAQEEFGQGEWSEWSPEAMGTPWTESRSPPAENEVSTPMQALTTNKDDDNILFRDSANATSLPVQDSSSVPLPTFLVAGGSLAFGTLLCIAIVLRFKKTWKLRALKEGKTSMHPPYSLGQLVPERPRPTPVLVPLISPPVSPSSLGSDNTSSHNRPDARDPRSPYDISNTDYFFPR
